From patent US20220372155A1 (LYVGEN BIOPHARMA, published 2022) come the findings set out here.

Numbering of substitutions follows the chain as printed. In names and notes the source's numbering stands.

First the molecules themselves.
B1: Ly487 (bispecific antibody, human IgG1, kappa)
heavy: EVQLVESGGGLVKPGGSLKLSCAASGFTFSDSGMHWVRQAPEKGLEWITYINSGSSTIYYADSVKGRFTISRDNAKNTLFLQMTSLRSEDTAMYYCARGRGYAMDYWGQGTSVTVSSASTKGPSVFPLAPSSKSTSGGTAALGCLVKDYFPEPVTVSWNSGALTSGVHTFPAVLQSSGLYSLSSVVTVPSSSLGTQTYICNVNHKPSNTKVDKKVEPKSCDKTHTCPPCPAPELLGPSVFLFPPKPKDTLMISRTPEVTCVVVDVSHEDPEVKFNWYVDGVEVHNAKTKPREEQYNSTYRVVSVLTVLHQDWLNGKEYKCKVSNKALPAPIEKTISKAKGQPREPQVYTLPPSREEMTKNQVSLTCLVKGFYPSDIAVEWESNGQPENNYKTTPPVLDSDGSFFLYSKLTVDKSRWQQGNVFSCSVMHEALHNHYTQKSLSLSPGGGGGSGGGGSGGGGSGGGGSQVQLVESGGGLVQPGGSLKLSCATSGFNFNDYFMNWVRQASGKGLEWVGQIRNKNYNYATYYTESLEGRVTISRDDSKNTAYLQMNSLKTEDTAVYYCTSYYYDGFADYFDYWGQGTTVTVSSGGGGSGGGGSGGGGSGGGGSDIQMTQSPSSLSASVGDRVTITCKASQNIYIYLNWYQQKPGKAPKLLIYNTNNLQTGVPSRFSGSGSGTDFTLTISSLQPEDFATYYCLQHSSRRTFGGGTKVEIK
light: EIVLTQSPTTMAASPGEKITIFCSASSSISSDFLHWYQQKPGFSPKLLIYRISNLASGVPARFSGSGSGTSYSLTIGTMEAEDVATYYCQQGSNVPRTFGGGTKLEIKRTVAAPSVFIFPPSDEQLKSGTASVVCLLNNFYPREAKVQWKVDNALQSGNSQESVTEQDSKDSTYSLSSTLTLSKADYEKHKVYACEVTHQGLSSPVTKSFNRGEC
notes: Ly366 HC (IgG1 mutated Fc)-TM740 scFv VH-VL + Ly366 LC
B2: Ly494 (bispecific antibody, human IgG1, kappa)
heavy: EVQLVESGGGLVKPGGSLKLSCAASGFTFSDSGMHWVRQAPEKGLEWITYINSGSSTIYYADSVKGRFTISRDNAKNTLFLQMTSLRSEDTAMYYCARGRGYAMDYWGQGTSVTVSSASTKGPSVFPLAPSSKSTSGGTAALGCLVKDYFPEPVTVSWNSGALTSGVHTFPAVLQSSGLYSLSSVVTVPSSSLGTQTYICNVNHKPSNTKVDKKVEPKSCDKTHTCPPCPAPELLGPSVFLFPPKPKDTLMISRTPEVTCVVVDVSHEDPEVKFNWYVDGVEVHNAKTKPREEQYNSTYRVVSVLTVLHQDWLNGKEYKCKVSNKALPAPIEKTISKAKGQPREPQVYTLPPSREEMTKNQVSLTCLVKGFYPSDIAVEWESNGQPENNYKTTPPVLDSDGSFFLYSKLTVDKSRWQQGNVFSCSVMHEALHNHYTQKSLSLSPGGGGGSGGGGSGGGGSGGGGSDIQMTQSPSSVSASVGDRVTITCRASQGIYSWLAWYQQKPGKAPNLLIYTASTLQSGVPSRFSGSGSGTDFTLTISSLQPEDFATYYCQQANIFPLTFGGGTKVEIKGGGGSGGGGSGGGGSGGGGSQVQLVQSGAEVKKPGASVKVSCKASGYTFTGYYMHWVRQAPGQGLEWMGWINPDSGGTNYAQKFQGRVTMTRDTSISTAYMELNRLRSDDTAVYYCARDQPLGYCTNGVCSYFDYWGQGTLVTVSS
light: B1 light
notes: Ly366 HC (IgG1 mutated Fc)-Ly253 scFv VL-VH + Ly366 LC
B3: Ly490 (bispecific antibody, human IgG1, kappa)
heavy: EVQLVESGGGLVKPGGSLKLSCAASGFTFSDSGMHWVRQAPEKGLEWITYINSGSSTIYYADSVKGRFTISRDNAKNTLFLQMTSLRSEDTAMYYCARGRGYAMDYWGQGTSVTVSSASTKGPSVFPLAPSSKSTSGGTAALGCLVKDYFPEPVTVSWNSGALTSGVHTFPAVLQSSGLYSLSSVVTVPSSSLGTQTYICNVNHKPSNTKVDKKVEPKSCDKTHTCPPCPAPELLGPSVFLFPPKPKDTLMISRTPEVTCVVVDVSHEDPEVKFNWYVDGVEVHNAKTKPREEQYNSTYRVVSVLTVLHQDWLNGKEYKCKVSNKALPAPIEKTISKAKGQPREPQVYTLPPSREEMTKNQVSLTCLVKGFYPSDIAVEWESNGQPENNYKTTPPVLDSDGSFFLYSKLTVDKSRWQQGNVFSCSVMHEALHNHYTQKSLSLSPGGGGGSGGGGSGGGGSGGGGSDIQMTQSPSSLSASVGDRVTITCLASEDISNDLAWYQQKPGKAPKLLIYFVDRLLDGVPSRFSGSGSGTDFTLTISSLQPEDFATYYCQQSYKYPPTFGQGTKLEIKGGGGSGGGGSGGGGSGGGGSEVQLVESGGGLVQPGGSLRLSCAASGFTFTNYGLHWVRQAPGKGLEWVSSISPSGGVTYYRDSVKGRFTISRDNSKNTLYLQMNSLRAEDTAVYYCAKPFLGWGGANWIAHWGQGTLVTVSS
light: B1 light
notes: Ly366 HC (IgG1 mutated Fc)-TM559 scFv VL-VH + Ly366 LC
B4: Ly495 (bispecific antibody, human IgG1, kappa)
heavy: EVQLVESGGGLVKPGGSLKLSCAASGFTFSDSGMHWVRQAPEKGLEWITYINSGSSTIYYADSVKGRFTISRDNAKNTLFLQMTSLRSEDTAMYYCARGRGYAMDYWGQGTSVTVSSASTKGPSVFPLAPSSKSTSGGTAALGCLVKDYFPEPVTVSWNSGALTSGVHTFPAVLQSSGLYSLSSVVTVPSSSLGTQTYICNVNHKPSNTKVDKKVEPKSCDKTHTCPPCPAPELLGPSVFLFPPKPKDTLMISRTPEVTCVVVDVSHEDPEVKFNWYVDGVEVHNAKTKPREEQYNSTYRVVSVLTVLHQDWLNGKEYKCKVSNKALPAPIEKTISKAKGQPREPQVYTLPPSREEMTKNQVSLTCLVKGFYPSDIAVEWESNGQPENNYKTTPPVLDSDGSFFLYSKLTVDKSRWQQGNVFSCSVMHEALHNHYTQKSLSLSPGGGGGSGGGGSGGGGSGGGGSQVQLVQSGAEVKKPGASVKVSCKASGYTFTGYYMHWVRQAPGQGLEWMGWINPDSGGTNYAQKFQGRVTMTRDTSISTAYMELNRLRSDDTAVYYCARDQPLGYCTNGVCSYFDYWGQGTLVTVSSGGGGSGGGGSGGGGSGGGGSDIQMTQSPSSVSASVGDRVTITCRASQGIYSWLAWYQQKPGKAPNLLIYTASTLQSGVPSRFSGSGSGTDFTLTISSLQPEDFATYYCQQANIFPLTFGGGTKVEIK
light: B1 light
notes: Ly366 HC (IgG1 mutated Fc)-Ly253 scFv VH-VL + Ly366 LC
B5: Ly491 (bispecific antibody, human IgG1, kappa)
heavy: EVQLVESGGGLVKPGGSLKLSCAASGFTFSDSGMHWVRQAPEKGLEWITYINSGSSTIYYADSVKGRFTISRDNAKNTLFLQMTSLRSEDTAMYYCARGRGYAMDYWGQGTSVTVSSASTKGPSVFPLAPSSKSTSGGTAALGCLVKDYFPEPVTVSWNSGALTSGVHTFPAVLQSSGLYSLSSVVTVPSSSLGTQTYICNVNHKPSNTKVDKKVEPKSCDKTHTCPPCPAPELLGPSVFLFPPKPKDTLMISRTPEVTCVVVDVSHEDPEVKFNWYVDGVEVHNAKTKPREEQYNSTYRVVSVLTVLHQDWLNGKEYKCKVSNKALPAPIEKTISKAKGQPREPQVYTLPPSREEMTKNQVSLTCLVKGFYPSDIAVEWESNGQPENNYKTTPPVLDSDGSFFLYSKLTVDKSRWQQGNVFSCSVMHEALHNHYTQKSLSLSPGGGGGSGGGGSGGGGSGGGGSEVQLVESGGGLVQPGGSLRLSCAASGFTFTNYGLHWVRQAPGKGLEWVSSISPSGGVTYYRDSVKGRFTISRDNSKNTLYLQMNSLRAEDTAVYYCAKPFLGWGGANWIAHWGQGTLVTVSSGGGGSGGGGSGGGGSGGGGSDIQMTQSPSSLSASVGDRVTITCLASEDISNDLAWYQQKPGKAPKLLIYFVDRLLDGVPSRFSGSGSGTDFTLTISSLQPEDFATYYCQQSYKYPPTFGQGTKLEIK
light: B1 light
notes: Ly366 HC (IgG1 mutated Fc)-TM559 scFv VH-VL + Ly366 LC
B6: Ly610 (bispecific antibody, human IgG1, kappa)
heavy: EVQLQQSGPELVKPGASVKMSCKASGYTFTSYVMHWVKQKPGQGLEWIGYINPYNDGTECTDKFKGKATLTSDKSSSTAYMELSSLTSEDSAVYYCASIYYGYDGTYFGVWGAGTSVTVSSASTKGPSVFPLAPSSKSTSGGTAALGCLVKDYFPEPVTVSWNSGALTSGVHTFPAVLQSSGLYSLSSVVTVPSSSLGTQTYICNVNHKPSNTKVDKKVEPKSCDKTHTCPPCPAPELLGPSVFLFPPKPKDTLMISRTPEVTCVVVDVSHEDPEVKFNWYVDGVEVHNAKTKPREEQYNSTYRVVSVLTVLHQDWLNGKEYKCKVSNKALPAPIEKTISKAKGQPREPQVYTLPPSREEMTKNQVSLTCLVKGFYPSDIAVEWESNGQPENNYKTTPPVLDSDGSFFLYSKLTVDKSRWQQGNVFSCSVMHEALHNHYTQKSLSLSPGGGGGSGGGGSGGGGSGGGGSDIQMTQSPSSLSASVGDRVTITCKASQNIYIYLNWYQQKPGKAPKLLIYNTNNLQTGVPSRFSGSGSGTDFTLTISSLQPEDFATYYCLQHSSRRTFGGGTKVEIKGGGGSGGGGSGGGGSGGGGSQVQLVESGGGLVQPGGSLKLSCATSGFNFNDYFMNWVRQASGKGLEWVGQIRNKNYNYATYYTESLEGRVTISRDDSKNTAYLQMNSLKTEDTAVYYCTSYYYDGFADYFDYWGQGTTVTVSS
light: QIVLSQSPAILSTSPGEKVTMTCRASSSVSYMHWYQQKPGSSPKPWIYATSNLASGVPARFSGSRSGTSYSLTISRVEAEDAATYYCQQWSSNTLTFGGGTKLELKRTVAAPSVFIFPPSDEQLKSGTASVVCLLNNFYPREAKVQWKVDNALQSGNSQESVTEQDSKDSTYSLSSTLTLSKADYEKHKVYACEVTHQGLSSPVTKSFNRGEC
notes: Ly383 HC (IgG1 mutated Fc)-TM740 scFv VL-VH + Ly383 LC
B7: Ly075 (antibody, human IgG1, kappa, V domains shown)
VH: QVQLVQSGAEVKKPGASVKVSCKASGYTFTDFWMSWVRQAPGQGLEWMGQIYPNTGTTHSNEKFKGRVTMTRDTSTSTVYMELSSLRSEDTAVYYCARSYHISTTPNWFAYWGQGTLVTVSS
VL: DIQMTQSPSSLSASVGDRVTITCKASQNVYKKLEWYQQKPGKVPKLLIYHTNILQTGVPSRFSGSGSGTDFTLTISSLQPEDVATYYCYQWNSGPTFGGGTKVEIKR
notes: humanized LYV5574, VH-1 and VL-1, human IgG1/kappa
B8: Ly076 (antibody, human IgG1, kappa, V domains shown)
VH: B7 VH
VL: B7 VL with L46V, F71Y
notes: humanized LYV5574, VH-1 and VL-2 (L42V, F71Y), human IgG1/kappa

T1 sequence (P25942 21-277): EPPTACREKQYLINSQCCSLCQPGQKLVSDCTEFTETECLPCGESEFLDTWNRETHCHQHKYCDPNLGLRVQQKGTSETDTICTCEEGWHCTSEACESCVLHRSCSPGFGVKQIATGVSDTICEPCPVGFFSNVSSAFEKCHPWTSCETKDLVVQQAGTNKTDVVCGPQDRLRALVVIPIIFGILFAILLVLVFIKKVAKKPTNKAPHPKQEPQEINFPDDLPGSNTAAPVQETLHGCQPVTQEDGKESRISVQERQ
T4 sequence (P25942 21-193): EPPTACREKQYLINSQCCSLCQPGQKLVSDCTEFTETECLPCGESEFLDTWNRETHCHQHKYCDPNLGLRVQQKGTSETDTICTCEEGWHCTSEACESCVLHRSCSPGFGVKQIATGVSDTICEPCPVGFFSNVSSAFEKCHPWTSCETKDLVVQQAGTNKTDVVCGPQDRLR

One experiment concerns the target T1, human CD40 expressed on CHO cells (human, UniProt P25942 21-277).
T1 construct: whole, on cells; also used for the reporter cells over-expressing human CD40; also called cellular CD40; CHO-CD40 cells
The experiment in a line: FACS, CHO cells.
Take B1: the binding result is “binds”.
On to B2, for which the binding result is “binds”.
Take B3: the binding result is “binds”.
In the case of B4, the binding result is listed as “binds”.
Take B5: the binding result is given as “binds”.
Turning to B6, the binding result is “binds”.

The target in a further experiment is T2, human B7H4 expressed on CHO cells (human, UniProt Q7Z7D3 25-282).
T2 construct: whole, on cells; also called VCTN1
T2 sequence (looked up): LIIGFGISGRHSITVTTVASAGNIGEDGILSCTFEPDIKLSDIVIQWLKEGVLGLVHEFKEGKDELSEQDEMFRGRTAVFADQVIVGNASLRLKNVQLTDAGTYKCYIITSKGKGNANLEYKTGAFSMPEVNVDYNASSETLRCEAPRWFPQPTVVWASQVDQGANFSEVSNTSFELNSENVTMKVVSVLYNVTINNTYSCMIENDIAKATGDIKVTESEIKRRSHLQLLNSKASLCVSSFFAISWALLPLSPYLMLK
The experiment in a line: FACS, CHO cells. For orientation: A flow cytometer gives signals particle by particle.
For the molecule B1, the binding result was “binds”.
As to B2, the binding result is given as “binds”.
Take B3: the binding result is on record as “binds”.
Regarding B4, the binding result was “binds”.
Turning to B5, the binding result is listed as “binds”.

In a further experiment the target is T3, human PD-L1 expressed on CHO cells (human, UniProt Q9NZQ7 19-290).
T3 construct: whole, on cells; also used for human PD-L1 on Raji cells in the reporter assay; also called cell surface PD-L1; Raji-PD-L1 cells
T3 sequence (Q9NZQ7 19-290): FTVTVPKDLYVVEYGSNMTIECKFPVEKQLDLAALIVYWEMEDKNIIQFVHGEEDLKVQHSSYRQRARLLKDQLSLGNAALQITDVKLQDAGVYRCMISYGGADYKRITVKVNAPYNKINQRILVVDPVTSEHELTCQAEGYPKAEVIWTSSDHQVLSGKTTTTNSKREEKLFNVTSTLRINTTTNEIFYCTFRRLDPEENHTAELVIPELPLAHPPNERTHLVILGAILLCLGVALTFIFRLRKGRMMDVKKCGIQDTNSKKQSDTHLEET
The experiment can be described thus: FACS, CHO cells.
B7: the binding result was “binds”.
Same read-out and setting: in the case of B8 it was “binds”.

A further experiment has as its target T4, Human CD40 ECD protein (mouse IgG2a Fc tag) (human, UniProt P25942 21-193).
T4 construct: extracellular domain; also called Human CD40-msFc; human recombinant CD40; not shown: mouse IgG2a Fc tag
The experiment in a line: bridging ELISA, coated B7H4, soluble CD40 ECD-mFc. Here is the method:
Anti-B7H4/CD40 bi-specific antibodies were analyzed by ELISA for their simultaneous binding to recombinant human B7H4 and human CD40. Briefly, human B7H4 protein was diluted and coated onto an ELISA plate with a volume of […] by incubation at 4° C. overnight. The next day, the plate was blocked by PBST-BSA buffer, then serially diluted samples of anti-B7H4/CD40 bi-specific antibodies were pipetted into appropriate wells at 50 μL/well, and the plate was incubated for 1 h followed by Washing. Human CD40 ECD protein (mouse IgG2a Fc tag) was added into the plate at 50 μL/well. After 1-hour incubation at room temperature, HRP-conjugated anti-mouse IgG (H+L) antibody was added into the plate at 100 μL/well. The plate was incubated for 1 hour at room temperature followed by washing. TMB substrate solution was added at 100 μL/well and the color development was stopped by adding 100 uL/well Stop Solution (2N H2SO4). Absorbance at 450 nm and 620 nm was read by Tecan F200 Pro plate reader. GraphPad 7.0, “[Agonist] vs. response—Variable slope (four parameters)” was used to plot the binding data and calculate binding EC50 values.
As for B1, the binding result is “binds”.
The same measure, in the same setting: in the case of B2 it was “binds”; in that of B3, “binds”; in that of B4, “binds”.
For the molecule B5, the binding result was “binds”.

Another experiment concerns the target T4, Human CD40 ECD protein (mouse IgG2a Fc …). The experiment can be described thus: bridging ELISA, coated B7H3-His, soluble CD40-msFc. Here is the method: Anti-B7H3/CD40 bi-specific antibodies were analyzed by ELISA for their simultaneous binding to recombinant human B7H3 and human CD40. Briefly, Human B7H3 CD protein (His-tag) was diluted and coated onto an ELISA plate with a volume of […] by incubation at 4° C. overnight. The next day, the plate was blocked with PBST-BSA buffer, then serially diluted samples of anti-B7H3/CD40 bi-specific antibodies were pipetted into appropriate wells at 50 μL/well, and the plate was incubated for 1 h followed by washing. Human CD40-msFc antibody was added into the plate at 50 μL/well. After 1-hour incubation at room temperature, […] anti-Mouse IgG (H+L) antibody was added into the plate at 100 μL/well. The plate was incubated for 1 hour at room temperature followed by washing. TMB substrate solution was added at 100 p L/well and the color development was stopped by adding 100 uUwell Stop Solution (2N H2SO4). Absorbance at 450 nm and 620 nm was read by Tecan F200 Pro plate reader. GraphPad 7.0, “[Agonist] vs. response—Variable slope (four parameters)” was used to plot the binding data and calculate binding EC50 values.
On the technique in general: ELISA stands for enzyme-linked immunosorbent assay.
Turning to B6, the binding result is “binds”.
